Molecular target: T1, HPV6和HPV11的共同抗原表位肽 (SEQ ID NO:1) (HPV6 and HPV11)
T1 construct: also called 序列1的免疫抗原肽; HPV6和HPV11高免疫原性抗原肽
T1 peptide: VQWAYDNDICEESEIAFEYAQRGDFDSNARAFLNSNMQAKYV
Experiment: SPR (ProteOn XPR36), antigen amine-coupled to GLC chip, antibody as analyte at 18.75-600 nM

B1: 单克隆抗体7C4c (antibody, V domains shown)
VH: EVQLEESATELARPGASVKLSCKASGYIFSGRWQAWIKQRPGQGLEWIGQELMWQAPHILEDSPGGKATLTADKSSSTAYMQLSSLASEDSAVYYCAGSQKWTACWGLGTTLAVSS
VL: DIVITQRPALMAASPGEKVTITCSTGYYPINQWCSWYQQKSGISPKPWIYINHDKTNGVPARFSGSGSGTSYSLTITSMEAEDAATYYCHSVQSSSCPFGAGTKLELK
Kd: 3.24 nM
